The conditions of this data set: Kitasatospora aureofaciens, pH 7, CD, MOPS 30 mM, whole UniProt chain shown; for denaturant m value / denaturant midpoint (higher = more stable) / unfolding free energy: 25 °C.

B1: Guanyl-specific ribonuclease Sa wild type, P05798 (protein)
chain: DVSGTVCLSALPPEATDTLNLIASDGPFPYSQDGVVFQNRESVLPTQSYGYYHEYTVITPGARTRGTRRIITGEATQEDYYTGDHYATFSLIDQTC
As usually defined, the Tm is the temperature at which the thermal transition is half complete. Turning to B1, under “GdnHCl”, the denaturant m value came out at 2.43 kcal/mol/M, the “denaturant midpoint (higher = more stable)” value was found to be 2.99 M and the unfolding free energy worked out at 7.3 kcal/mol. Where the note is “Urea”, the denaturant m value was 0.96 kcal/mol/M, the “denaturant midpoint (higher = more stable)” value was 6.06 M and the unfolding free energy is 5.8 kcal/mol. In addition, under “Thermal”, the Tm stood at 49.3 °C, the “heat capacity change of unfolding” value is 1.52 kcal/mol/K and the “unfolding enthalpy (van 't Hoff)” value was 93 kcal/mol.

These data come from FireProtDB (doi:10.1002/pro.381).
